Laboratory results reported in US20170101476A1 (Novartis, published 2017).
Where two headings read alike, the source gives them in different places.

Key:
Test in all cases: cell-based or functional assay
[1] = molecular target: T1, Human CXCR2 (human, UniProt P25025 1-360)
T1 sequence: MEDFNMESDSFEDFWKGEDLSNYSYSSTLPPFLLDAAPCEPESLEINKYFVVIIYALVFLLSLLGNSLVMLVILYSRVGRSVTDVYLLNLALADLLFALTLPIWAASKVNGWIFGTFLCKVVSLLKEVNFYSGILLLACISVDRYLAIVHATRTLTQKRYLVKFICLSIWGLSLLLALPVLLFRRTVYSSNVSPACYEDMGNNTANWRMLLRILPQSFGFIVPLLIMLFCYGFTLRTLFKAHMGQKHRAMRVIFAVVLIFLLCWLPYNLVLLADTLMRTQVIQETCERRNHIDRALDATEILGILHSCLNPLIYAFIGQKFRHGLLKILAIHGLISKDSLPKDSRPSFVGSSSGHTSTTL

[2] = molecular target: T1, Human CXCR2; remark: listed apart in the source
[3] = molecular target: T2, Cynomolgus CXCR2 (cynomolgus, UniProt Q28519 3-353 (rhesus entry))
T2 chain: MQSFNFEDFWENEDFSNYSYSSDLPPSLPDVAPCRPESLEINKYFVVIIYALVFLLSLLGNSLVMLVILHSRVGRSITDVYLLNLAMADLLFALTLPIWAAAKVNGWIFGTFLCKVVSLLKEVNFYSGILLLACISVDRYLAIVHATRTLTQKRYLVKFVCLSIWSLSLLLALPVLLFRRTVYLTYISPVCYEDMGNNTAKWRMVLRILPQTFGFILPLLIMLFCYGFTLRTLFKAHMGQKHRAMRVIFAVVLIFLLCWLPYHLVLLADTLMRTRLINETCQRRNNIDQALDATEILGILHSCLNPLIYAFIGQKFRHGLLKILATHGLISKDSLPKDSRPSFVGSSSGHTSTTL

[4] = molecular target: T1, Human CXCR2; remark: listed apart in the source
[5] = molecular target: T1, Human CXCR2; remark: listed apart in the source
[6] = molecular target: T2, Cynomolgus CXCR2

B1: 137B07 (VHH, not shown: small tags and cut ends)
VHH: EVQLVESGGGLVQPGGSVRLSCVASGIIFRLSALGWTRQGPGKAREWVAGINSDGTTNYADPVKGRFTISRDNAKNTIYLHMDMLKPEDTAVYYCASGKYRGQGTQVTVSS
[1]
  FLIPR IC50, GRO-α induced intracellular calcium release: 6.71 nM

B2: CXCR20026 (bispecific antibody, not shown: small tags and cut ends)
chain: EVQLVESGGGLVQPGGSLRLSCVASGRIFSSNAMGWFRQAPGKEREFVAAITWRSGGSAYYADSAKGRFTISRDNAKNTVYLQMNSLKPEDTAVYYCAAGGSSWLSFPPDYWGQGTQVTVSSGGGGSGGGGSGGGGSGGGGSGGGGSGGGGSGGGGSEVQLVESGGGLVQAGESLRLSCAASGSTFDFKVMGWYRQPPGKQREGVAAIRLSGNMHYAESVKGRFTISKANAKNTVYLQMNSLRPEDTAVYYCKVNIRGQDYWGQGTQVTVSS
[2]
  FLIPR IC50, GRO-α induced intracellular calcium release: 12.3 nM
[3]
  FLIPR IC50, GRO-α induced intracellular calcium release: 9.1 nM
[4]
  [35S]GTPγS % inhibition of max, GRO-α: 100%
  [35S]GTPγS accumulation IC50, GRO-α: 0.809 nM
[5]
  Human Chemotaxis IC50 (vs rhGROα): 0.14 nM
  Human WBSC IC50 (vs rhGROα): 0.165 nM
[6]
  Cynomologus WBSC IC50 (vs rhGROα): 0.26 nM

B3: CXCR20028 (other, not shown: small tags and cut ends)
chain: EVQLVESGGGLVQPGGSLRLSCVASGSIVRINTMGWYRQTPGKQRELVADITSGGNINYIDAVKGRFTISRDNTKNTVYLQMNSLKPEDTAVYYCNAEIVVLVGVWTQRARTGNYWGQGTQVTVSSGGGGSGGGGSGGGGSGGGGSGGGGSGGGGSGGGGSEVQLVESGGGLVQAGGSLTLSCAVSGSTFRINTMGWYRRAPGKQRELVAARDRGGYINYVDSVKGRFTVSRDNAKPTMYLQMNSLKPEDTAVYYCHAGTQDRTGRNFDRWGQGTQVTVSS
[2]
  FLIPR IC50, GRO-α induced intracellular calcium release: 21.9 nM
[3]
  FLIPR IC50, GRO-α induced intracellular calcium release: 17 nM
[4]
  [35S]GTPγS % inhibition of max, GRO-α: 100%
  [35S]GTPγS accumulation IC50, GRO-α: 1.38 nM
[5]
  Human WBSC IC50 (vs rhGROα): 0.43 nM
[6]
  Cynomologus WBSC IC50 (vs rhGROα): 1.72 nM

B4: CXCR20030 (other, not shown: small tags and cut ends)
chain: EVQLVESGGGLVQAGGSLRLSCAASGRTFSDYAMGWFRQAPGKEREFVAAITWNGGRVFYTASVKGRFTISRDNAKNTMYLQMNSLKPEDTAVYYCAADKDRRTDYLGHPVAYWGQGTQVTVSSGGGGSGGGGSGGGGSGGGGSGGGGSGGGGSGGGGSEVQLVESGGGLVQAGGSLTLSCAVSGSTFRINTMGWYRRAPGKQRELVAARDRGGYINYVDSVKGRFTVSRDNAKPTMYLQMNSLKPEDTAVYYCHAGTQDRTGRNFDRWGQGTQVTVSS
[2]
  FLIPR IC50, GRO-α induced intracellular calcium release: 11.8 nM
[3]
  FLIPR IC50, GRO-α induced intracellular calcium release: 6.36 nM
[4]
  [35S]GTPγS % inhibition of max, ENA-78: 100%
  [35S]GTPγS % inhibition of max, GRO-α: 100%
  [35S]GTPγS % inhibition of max, IL-8: 100%
  [35S]GTPγS accumulation IC50, ENA-78: 1.3 nM
  [35S]GTPγS accumulation IC50, GRO-α: 1.02 nM
  [35S]GTPγS accumulation IC50, IL-8: 1.09 nM
[5]
  Human WBSC IC50 (vs rhGROα): 0.215 nM
[6]
  Cynomologus WBSC IC50 (vs rhGROα): 0.56 nM

B5: CXCR20032 (bispecific antibody, not shown: small tags and cut ends)
chain: EVQLVESGGELVQPGGSLRLSCAASGSILTINAMGWYRQAPGKQRELVVRRTRGGSTTYQDSVKGRFTISADIAKKTMYLQMNSLKPEDTAVYYCMLDDRGGVYWGQGTQVTVSSGGGGSGGGGSGGGGSGGGGSGGGGSGGGGSGGGGSEVQLVESGGGLVQAGGSLRLSCAASGRTFSDYAMGWFRQAPGKEREFVAAITWNGGRVFYTASVKGRFTISRDNAKNTMYLQMNSLKPEDTAVYYCAADKDRRTDYLGHPVAYWGQGTQVTVSS
[2]
  FLIPR IC50, GRO-α induced intracellular calcium release: 14.7 nM
[3]
  FLIPR IC50, GRO-α induced intracellular calcium release: 3.65 nM
[4]
  [35S]GTPγS % inhibition of max, ENA-78: 100%
  [35S]GTPγS % inhibition of max, IL-8: 100%
  [35S]GTPγS accumulation IC50, ENA-78: 0.116 nM
  [35S]GTPγS accumulation IC50, IL-8: 0.997 nM

B6: CXCR20033 (bispecific antibody, not shown: small tags and cut ends)
chain: EVQLVESGGGLVQPGGSLRLSCVASGRIFSSNAMGWFRQAPGKEREFVAAITWRSGGSAYYADSAKGRFTISRDNAKNTVYLQMNSLKPEDTAVYYCAAGGSSWLSFPPDYWGQGTQVTVSSGGGGSGGGGSGGGGSGGGGSGGGGSGGGGSGGGGSEVQLVESGGELVQPGGSLRLSCAASGSILTINAMGWYRQAPGKQRELVVRRTRGGSTTYQDSVKGRFTISADIAKKTMYLQMNSLKPEDTAVYYCMLDDRGGVYWGQGTQVTVSS
[2]
  FLIPR IC50, GRO-α induced intracellular calcium release: 17.9 nM
[3]
  FLIPR IC50, GRO-α induced intracellular calcium release: 4.46 nM
[4]
  [35S]GTPγS % inhibition of max, GRO-α: 100%
  [35S]GTPγS accumulation IC50, GRO-α: 1.01 nM
[5]
  Human Chemotaxis IC50 (vs rhGROα): 0.145 nM
  Human WBSC IC50 (vs rhGROα): 0.345 nM
[6]
  Cynomologus WBSC IC50 (vs rhGROα): 0.42 nM

B7: CXCR20034 (bispecific antibody, not shown: small tags and cut ends)
chain: EVQLVESGGGLVQAGGSLRLSCAASGRTFSDYAMGWFRQAPGKEREFVAAITWNGGRVFYTASVKGRFTISRDNAKNTMYLQMNSLKPEDTAVYYCAADKDRRTDYLGHPVAYWGQGTQVTVSSGGGGSGGGGSGGGGSGGGGSGGGGSGGGGSGGGGSEVQLVESGGELVQPGGSLRLSCAASGSILTINAMGWYRQAPGKQRELVVRRTRGGSTTYQDSVKGRFTISADIAKKTMYLQMNSLKPEDTAVYYCMLDDRGGVYWGQGTQVTVSS
[2]
  FLIPR IC50, GRO-α induced intracellular calcium release: 11.8 nM
[3]
  FLIPR IC50, GRO-α induced intracellular calcium release: 9.47 nM
[4]
  [35S]GTPγS % inhibition of max, GRO-α: 100%
  [35S]GTPγS accumulation IC50, GRO-α: 0.995 nM
[5]
  Human Chemotaxis IC50 (vs rhGROα): 0.145 nM
  Human WBSC IC50 (vs rhGROα): 0.29 nM
[6]
  Cynomologus WBSC IC50 (vs rhGROα): 0.44 nM

B8: CXCR20021 (bispecific antibody, not shown: small tags and cut ends)
chain: EVQLVESGGGLVQAGESLRLSCAASGSTFDFKVMGWYRQPPGKQREGVAAIRLSGNMHYAESVKGRFTISKANAKNTVYLQMNSLRPEDTAVYYCKVNIRGQDYWGQGTQVTVSSGGGGSGGGGSGGGGSGGGGSGGGGSGGGGSGGGGSEVQLVESGGGLVQPGGSLRLSCVASGRIFSSNAMGWFRQAPGKEREFVAAITWRSGGSAYYADSAKGRFTISRDNAKNTVYLQMNSLKPEDTAVYYCAAGGSSWLSFPPDYWGQGTQVTVSS
[2]
  FLIPR IC50, GRO-α induced intracellular calcium release: 7.32 nM
[3]
  FLIPR IC50, GRO-α induced intracellular calcium release: 2.31 nM
[4]
  [35S]GTPγS % inhibition of max, ENA-78: 100%
  [35S]GTPγS % inhibition of max, GRO-α: 100%
  [35S]GTPγS % inhibition of max, IL-8: 100%
  [35S]GTPγS accumulation IC50, ENA-78: 0.787 nM
  [35S]GTPγS accumulation IC50, GRO-α: 0.551 nM
  [35S]GTPγS accumulation IC50, IL-8: 0.827 nM

B9: CXCR20022 (VHH, not shown: small tags and cut ends)
chain: EVQLVESGGGLVQAGGSLRLSCAASGRTFSDYAMGWFRQAPGKEREFVAAITWNGGRVFYTASVKGRFTISRDNAKNTMYLQMNSLKPEDTAVYYCAADKDRRTDYLGHPVAYWGQGTQVTVSSGGGGSGGGGSGGGGSGGGGSGGGGSGGGGSGGGGSEVQLVESGGGLVQAGGSLRLSCAASGRTFSDYAMGWFRQAPGKEREFVAAITWNGGRVFYTASVKGRFTISRDNAKNTMYLQMNSLKPEDTAVYYCAADKDRRTDYLGHPVAYWGQGTQVTVSS
[2]
  FLIPR IC50, GRO-α induced intracellular calcium release: 9.34 nM
[3]
  FLIPR IC50, GRO-α induced intracellular calcium release: 8.64 nM
[4]
  [35S]GTPγS % inhibition of max, GRO-α: 100%
  [35S]GTPγS accumulation IC50, GRO-α: 28.5 nM

B10: CXCR20023 (bispecific antibody, not shown: small tags and cut ends)
chain: EVQLVESGGGLVQAGGSLRLSCAASGRTFSDYAMGWFRQAPGKEREFVAAITWNGGRVFYTASVKGRFTISRDNAKNTMYLQMNSLKPEDTAVYYCAADKDRRTDYLGHPVAYWGQGTQVTVSSGGGGSGGGGSGGGGSGGGGSGGGGSGGGGSGGGGSEVQLVESGGGLVQPGGSLRLSCVASGRIFSSNAMGWFRQAPGKEREFVAAITWRSGGSAYYADSAKGRFTISRDNAKNTVYLQMNSLKPEDTAVYYCAAGGSSWLSFPPDYWGQGTQVTVSS
[2]
  FLIPR IC50, GRO-α induced intracellular calcium release: 14.8 nM
[3]
  FLIPR IC50, GRO-α induced intracellular calcium release: 12 nM
[4]
  [35S]GTPγS % inhibition of max, GRO-α: 100%
  [35S]GTPγS accumulation IC50, GRO-α: 26.6 nM
